Assay results as given in patent US20260109745A1.

Columns and labels:
[1] = biological target: MUC5AC (NPC-1 antigen, tumor variant) as expressed by human colorectal tumor cell lines (human) (UniProt P98088); assay: flow cytometry on SW480 colorectal tumor cells
[2] = biological target: MUC5AC (NPC-1 antigen, tumor variant) as expressed by human colorectal tumor cell lines (human) (UniProt P98088); assay: flow cytometry on Colo-205 colorectal tumor cells
[3] = biological target: MUC5AC (NPC-1 antigen, tumor variant) as expressed on human pancreatic tumor cell lines (human) (UniProt P98088); assay: flow cytometry on CFPAC-1 pancreatic tumor cells
[4] = biological target: MUC5AC (NPC-1 antigen, tumor variant) as expressed by human colorectal tumor cell lines (human) (UniProt P98088); assay: flow cytometry on LS174T colorectal tumor cells
[5] = biological target: MUC5AC (NPC-1 antigen, tumor variant) as expressed on human pancreatic tumor cell lines (human) (UniProt P98088); assay: immunofluorescence on fixed, permeabilized CFPAC-1 cells, 2 ug/ml

Sequence of MUC5AC (NPC-1 antigen, tumor variant) as expressed by human colorectal tumor cell lines (human) (P98088 other isoform, or with tags, fused parts or gaps mutant limits assumed): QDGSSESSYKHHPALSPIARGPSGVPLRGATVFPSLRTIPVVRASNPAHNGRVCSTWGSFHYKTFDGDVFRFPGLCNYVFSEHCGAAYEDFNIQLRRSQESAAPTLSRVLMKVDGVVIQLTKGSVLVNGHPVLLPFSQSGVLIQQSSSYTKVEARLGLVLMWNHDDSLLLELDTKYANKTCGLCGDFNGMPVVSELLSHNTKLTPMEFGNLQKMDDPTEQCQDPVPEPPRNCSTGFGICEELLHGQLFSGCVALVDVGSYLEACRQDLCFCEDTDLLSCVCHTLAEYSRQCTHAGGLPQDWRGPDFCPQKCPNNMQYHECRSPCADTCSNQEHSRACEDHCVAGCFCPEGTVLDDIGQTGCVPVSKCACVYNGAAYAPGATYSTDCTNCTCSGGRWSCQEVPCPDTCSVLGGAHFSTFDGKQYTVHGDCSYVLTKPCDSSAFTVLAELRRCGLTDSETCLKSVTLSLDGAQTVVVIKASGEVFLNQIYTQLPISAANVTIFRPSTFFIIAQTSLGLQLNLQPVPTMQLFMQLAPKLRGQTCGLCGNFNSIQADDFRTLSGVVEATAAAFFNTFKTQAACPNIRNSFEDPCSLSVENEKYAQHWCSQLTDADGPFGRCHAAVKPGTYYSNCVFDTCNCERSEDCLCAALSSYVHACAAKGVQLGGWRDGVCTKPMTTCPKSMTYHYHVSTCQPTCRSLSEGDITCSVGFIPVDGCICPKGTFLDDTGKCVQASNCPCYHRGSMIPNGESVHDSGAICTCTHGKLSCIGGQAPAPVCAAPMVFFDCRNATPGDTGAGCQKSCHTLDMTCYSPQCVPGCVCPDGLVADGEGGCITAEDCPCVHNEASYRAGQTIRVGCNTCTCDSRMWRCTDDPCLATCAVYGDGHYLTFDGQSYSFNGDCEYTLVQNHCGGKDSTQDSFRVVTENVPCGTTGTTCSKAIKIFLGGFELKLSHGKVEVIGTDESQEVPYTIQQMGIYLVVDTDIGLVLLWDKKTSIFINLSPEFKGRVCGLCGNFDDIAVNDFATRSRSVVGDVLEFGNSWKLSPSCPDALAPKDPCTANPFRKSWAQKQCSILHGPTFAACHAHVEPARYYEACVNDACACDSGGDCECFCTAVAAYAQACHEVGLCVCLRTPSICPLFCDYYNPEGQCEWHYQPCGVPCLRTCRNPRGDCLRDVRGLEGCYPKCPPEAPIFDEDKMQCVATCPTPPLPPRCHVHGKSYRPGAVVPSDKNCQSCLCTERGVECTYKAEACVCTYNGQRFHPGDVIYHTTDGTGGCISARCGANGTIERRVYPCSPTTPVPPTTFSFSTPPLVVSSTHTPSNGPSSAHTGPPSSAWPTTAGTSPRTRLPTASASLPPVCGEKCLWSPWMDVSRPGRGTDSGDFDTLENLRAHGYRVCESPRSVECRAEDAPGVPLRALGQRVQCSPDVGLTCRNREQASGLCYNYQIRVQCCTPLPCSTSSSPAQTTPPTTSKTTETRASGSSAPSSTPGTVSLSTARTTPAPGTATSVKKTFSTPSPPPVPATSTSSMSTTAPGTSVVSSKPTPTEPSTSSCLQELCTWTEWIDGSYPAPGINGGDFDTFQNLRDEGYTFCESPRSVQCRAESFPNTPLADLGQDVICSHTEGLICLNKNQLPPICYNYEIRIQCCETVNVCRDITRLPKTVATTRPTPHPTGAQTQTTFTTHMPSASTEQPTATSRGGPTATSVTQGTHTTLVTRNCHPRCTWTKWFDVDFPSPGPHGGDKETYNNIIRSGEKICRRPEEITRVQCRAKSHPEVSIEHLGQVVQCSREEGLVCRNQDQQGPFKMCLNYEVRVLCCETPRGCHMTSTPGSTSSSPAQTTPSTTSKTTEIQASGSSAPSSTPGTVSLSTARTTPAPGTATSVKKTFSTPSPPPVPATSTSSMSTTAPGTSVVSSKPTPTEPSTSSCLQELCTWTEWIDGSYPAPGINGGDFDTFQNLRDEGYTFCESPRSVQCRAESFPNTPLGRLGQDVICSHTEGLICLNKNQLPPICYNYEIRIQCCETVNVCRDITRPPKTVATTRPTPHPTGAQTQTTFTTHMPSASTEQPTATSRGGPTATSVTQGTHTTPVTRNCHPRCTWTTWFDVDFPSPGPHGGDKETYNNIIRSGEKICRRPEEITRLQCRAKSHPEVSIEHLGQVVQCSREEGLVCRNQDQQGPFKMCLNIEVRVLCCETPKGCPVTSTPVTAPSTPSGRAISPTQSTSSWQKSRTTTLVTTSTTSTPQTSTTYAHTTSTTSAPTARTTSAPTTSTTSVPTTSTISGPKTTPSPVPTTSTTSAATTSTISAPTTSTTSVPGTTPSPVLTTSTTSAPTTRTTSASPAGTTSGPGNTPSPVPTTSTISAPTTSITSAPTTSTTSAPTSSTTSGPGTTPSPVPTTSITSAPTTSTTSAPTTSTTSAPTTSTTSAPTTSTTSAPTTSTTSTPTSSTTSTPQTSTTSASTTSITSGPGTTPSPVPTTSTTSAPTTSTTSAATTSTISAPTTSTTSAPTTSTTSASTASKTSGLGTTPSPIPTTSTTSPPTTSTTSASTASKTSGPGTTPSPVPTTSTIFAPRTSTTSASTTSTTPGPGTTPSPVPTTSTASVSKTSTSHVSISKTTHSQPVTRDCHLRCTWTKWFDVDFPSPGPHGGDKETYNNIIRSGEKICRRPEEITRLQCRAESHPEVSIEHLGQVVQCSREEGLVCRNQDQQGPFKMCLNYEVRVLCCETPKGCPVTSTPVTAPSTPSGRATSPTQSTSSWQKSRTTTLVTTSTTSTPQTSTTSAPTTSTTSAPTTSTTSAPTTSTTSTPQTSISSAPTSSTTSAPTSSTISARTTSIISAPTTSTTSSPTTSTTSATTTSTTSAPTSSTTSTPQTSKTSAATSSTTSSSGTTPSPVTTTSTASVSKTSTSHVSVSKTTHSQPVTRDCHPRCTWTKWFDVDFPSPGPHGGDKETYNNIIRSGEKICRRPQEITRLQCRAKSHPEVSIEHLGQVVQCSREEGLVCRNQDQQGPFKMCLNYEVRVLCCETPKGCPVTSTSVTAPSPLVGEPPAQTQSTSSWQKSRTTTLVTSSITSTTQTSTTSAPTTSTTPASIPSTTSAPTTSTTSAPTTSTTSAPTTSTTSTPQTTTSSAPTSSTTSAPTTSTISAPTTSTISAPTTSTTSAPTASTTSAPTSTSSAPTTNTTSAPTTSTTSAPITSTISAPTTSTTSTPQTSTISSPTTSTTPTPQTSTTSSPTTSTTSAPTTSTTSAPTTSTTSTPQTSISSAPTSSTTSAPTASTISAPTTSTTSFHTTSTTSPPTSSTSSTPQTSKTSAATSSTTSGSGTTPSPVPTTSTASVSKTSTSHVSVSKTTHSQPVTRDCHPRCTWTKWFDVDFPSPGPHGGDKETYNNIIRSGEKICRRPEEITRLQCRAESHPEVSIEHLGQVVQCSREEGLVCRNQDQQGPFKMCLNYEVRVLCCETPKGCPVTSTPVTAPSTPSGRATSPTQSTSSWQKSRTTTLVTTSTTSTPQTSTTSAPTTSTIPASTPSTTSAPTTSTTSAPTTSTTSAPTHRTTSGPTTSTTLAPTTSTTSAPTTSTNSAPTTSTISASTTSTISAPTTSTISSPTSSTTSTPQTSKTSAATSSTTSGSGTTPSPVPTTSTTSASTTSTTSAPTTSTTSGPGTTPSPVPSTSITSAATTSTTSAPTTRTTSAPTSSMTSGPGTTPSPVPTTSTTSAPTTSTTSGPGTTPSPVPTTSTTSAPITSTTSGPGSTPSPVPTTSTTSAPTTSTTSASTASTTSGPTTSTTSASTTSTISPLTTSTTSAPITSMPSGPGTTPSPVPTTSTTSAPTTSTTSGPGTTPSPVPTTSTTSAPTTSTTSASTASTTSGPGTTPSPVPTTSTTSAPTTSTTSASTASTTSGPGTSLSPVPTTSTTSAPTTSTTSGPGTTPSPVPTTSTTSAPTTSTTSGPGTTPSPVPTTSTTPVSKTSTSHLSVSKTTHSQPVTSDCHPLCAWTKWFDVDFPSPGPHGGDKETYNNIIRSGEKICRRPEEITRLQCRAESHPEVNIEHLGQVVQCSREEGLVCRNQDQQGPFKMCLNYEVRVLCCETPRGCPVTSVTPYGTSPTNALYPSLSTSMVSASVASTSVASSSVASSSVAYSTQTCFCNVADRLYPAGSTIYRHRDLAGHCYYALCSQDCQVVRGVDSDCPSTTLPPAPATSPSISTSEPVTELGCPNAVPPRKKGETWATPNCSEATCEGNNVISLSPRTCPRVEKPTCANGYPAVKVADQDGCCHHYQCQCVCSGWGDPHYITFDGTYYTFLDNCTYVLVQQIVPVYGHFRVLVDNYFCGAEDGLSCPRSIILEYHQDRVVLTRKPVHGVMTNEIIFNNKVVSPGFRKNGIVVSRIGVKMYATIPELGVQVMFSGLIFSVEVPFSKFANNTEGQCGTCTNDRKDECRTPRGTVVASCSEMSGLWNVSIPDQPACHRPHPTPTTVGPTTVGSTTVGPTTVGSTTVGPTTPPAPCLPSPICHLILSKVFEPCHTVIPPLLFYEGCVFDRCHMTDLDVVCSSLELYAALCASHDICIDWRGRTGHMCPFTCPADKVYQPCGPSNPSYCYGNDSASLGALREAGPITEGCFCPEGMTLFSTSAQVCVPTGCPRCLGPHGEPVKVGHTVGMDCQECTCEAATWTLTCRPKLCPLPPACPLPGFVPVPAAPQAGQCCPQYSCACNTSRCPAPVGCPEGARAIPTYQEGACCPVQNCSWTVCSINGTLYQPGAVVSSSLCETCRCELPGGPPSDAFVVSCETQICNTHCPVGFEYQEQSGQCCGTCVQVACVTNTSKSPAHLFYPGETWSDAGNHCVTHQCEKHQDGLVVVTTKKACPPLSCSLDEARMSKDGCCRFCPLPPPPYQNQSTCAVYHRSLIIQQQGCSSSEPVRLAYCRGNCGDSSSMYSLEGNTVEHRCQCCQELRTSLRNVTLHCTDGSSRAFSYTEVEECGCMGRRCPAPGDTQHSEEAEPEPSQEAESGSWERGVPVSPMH
Sequence of MUC5AC (NPC-1 antigen, tumor variant) as expressed on human pancreatic tumor cell lines (human) (P98088 other isoform, or with tags, fused parts or gaps mutant limits assumed): as above

Row | % Cells Stained [1] [%] | % Cells Stained [2] [%] | % Cells Stained [3] [%] | % Cells Stained [4] [%] | % of cells stained [5] [%] | Substance
1 | 3.38 | 2.33 | 1.79 | 3.85 | – | Isotype control antibody
2 | – | – | – | – | 100 | Polyclonal rabbit anti-MUC5AC antibody (H-160) (Santa Cruz Biotechnology Inc.)
